The values that follow come from US20230065306A1 (INHIBRX, published 2023).

The target of assay [1] is T1, human CD123 (full-length, on cells) (human, UniProt P26951 19-378).
T1 construct: also called CD123-FL; interleukin-3 receptor alpha chain
As to the kind of experiment: flow cytometry on HEK 293 cells transfected with full-length CD123; apparent Kd, one-site fit. How it is done:
(§1) Binding of sdAbs to human CD123 was assessed by flow cytometry. […] HEK 293 cells were transiently transfected with a plasmid encoding full-length CD123 (UniProt Accession No. P26951-1; mature form, SEQ ID NO: 1) and used as the positive cell line in FIGS. 2A to 2M, and untransfected HEK 293 cells were used as CD123-negative cells. In FIG. 2N, Molm-13 cells, which express CD123, were used as the positive cell line. Each cell type was plated at 30,000 cells/well in FACS buffer (PBS 1% BSA, 0.1% NaN₃ pH 7.4) on a 96-well round-bottom plate. The sdAbs were diluted in FACS buffer in a 3-fold, 11 point serial dilution. The sdAb dilutions were added to the plated cells, and assay plates were incubated for 30 minutes at 4° C. After washing twice in 150 μL of FACS buffer, cells in each well were resuspended in 100 μL of 1:2000 Alexa Fluor 647-conjugated Anti-Human IgG secondary diluted in FACS buffer and incubated at 4° C. for 30 minutes. The cells were washed twice more, then bound antibody was detected by flow cytometry.
(§2) Flow cytometric analysis was performed on an Intellicyte iQue Plus and fluorescence was plotted as median fluorescence intensity. The apparent affinity (Kd, nM) was determined using one site binding non-linear regression in PRISM graph software.
Background: In flow cytometry, cells or beads pass a laser one at a time.

In assay [2] the target is T1, human CD123 (full-length, on cells). As to the kind of experiment: flow cytometry, HEK 293 cells transfected with full-length CD123 (CD123-FL); Median RL-1H. How it is done:
as §1, §2
Target sequence in this assay (P26951 19-378): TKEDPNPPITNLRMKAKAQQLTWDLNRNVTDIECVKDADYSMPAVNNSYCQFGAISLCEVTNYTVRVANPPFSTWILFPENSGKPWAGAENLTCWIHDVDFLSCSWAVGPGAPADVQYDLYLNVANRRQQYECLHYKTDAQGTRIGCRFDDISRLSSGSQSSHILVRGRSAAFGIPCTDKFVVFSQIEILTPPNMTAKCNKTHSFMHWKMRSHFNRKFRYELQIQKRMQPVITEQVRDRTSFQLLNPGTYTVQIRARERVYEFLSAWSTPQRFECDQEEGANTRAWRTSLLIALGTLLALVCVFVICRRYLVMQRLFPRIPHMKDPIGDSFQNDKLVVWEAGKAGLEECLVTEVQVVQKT

The target is the same in assay [3]. As to the kind of experiment: flow cytometry blocking assay, sdAb titrated on CD123-expressing HEK-293 cells with a fixed amount of IL-3-mFc. How it is done: Certain CD123-binding sdAbs were tested for the ability to block CD123 binding to IL-3 by titrating the sdAb onto CD123 expressing HEK-293 cells in the presence of a fixed amount of recombinant IL-3-mFc. Bound IL-3 was detected by flow cytometry using fluorophore conjugated anti-mouse IgG specific secondary antibody.

For assay [4], the target named is T2, CD123-his.
T2 construct: also called histidine tagged human CD123; His-tagged CD123 ECD
T2 extracellular domain with C-terminal His tag: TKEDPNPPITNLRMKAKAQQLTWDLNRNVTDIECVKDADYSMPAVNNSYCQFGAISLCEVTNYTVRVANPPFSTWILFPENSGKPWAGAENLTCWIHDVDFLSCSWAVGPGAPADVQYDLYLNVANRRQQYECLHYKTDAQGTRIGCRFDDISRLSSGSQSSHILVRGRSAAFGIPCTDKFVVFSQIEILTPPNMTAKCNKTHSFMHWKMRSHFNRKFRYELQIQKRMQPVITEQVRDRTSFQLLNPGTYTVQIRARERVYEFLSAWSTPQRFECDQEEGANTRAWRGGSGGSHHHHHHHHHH
The assay is described as follows: BLI, CD123-his captured on Ni-NTA sensors, first sdAb 100 nM. How it is done:
(§3) The epitopes of single domain antibodies (sdAbs) that comprise VHH domains that bind CD123 were compared using Bio-Layer Interferometry. 5 ug/mL of histidine tagged human CD123 was immobilized on Nickel-nitrilotriacetic acid (Ni-NTA) coated capture sensors. 100 nM of one sdAb was then loaded onto the CD123 antigen and allowed to come to equilibrium. The sensors were then transferred into 100 nM of a second sdAb.
Background: In BLI a coated tip is dipped into the sample, and binding shifts an interference pattern.

The target of assay [5] is T2, CD123-his. The assay is described as follows: BLI, CD123-his on Ni-NTA sensors preloaded with hzA5v2, second sdAb 100 nM. How it is done: as §3

B1: 1B11-IgG1 (Fc fusion)
chain: QVQLVQSGGGSVQAGGSLRLSCAAAGRTQSAVAMGWFRQDPGKDRDFVAAIRWSGGNTYYADSAEGRFTISRDNAKNTVYLQMDSLKPEDTAVYSCAISMNHFGMYDYWGQGTQVTVDKTHTCPPCPAPGGPSVFLFPPKPKDTLMISRTPEVTCVVVDVSHEDPEVKFNWYVDGVEVHNAKTKPREEQYNSTYRVVSVLTVLHQDWLNGKEYKCKVSNKALPAPIEKTISKAKGQPREPQVYTLPPSRDELTKNQVSLTCLVKGFYPSDIAVEWESNGQPENNYKTTPPVLDSDGSFFLYSKLTVDKSRWQQGNVFSCSVMHEALHNHYTQKSLSLSPGK
In the case of B1, in assay [1], the Kd turned out to be 0.52 nM. Further, the half-maximal effective concentration (EC50 (read off the curve)) in assay [2] was roughly 0.6 nM.

B2: hz1F5v2-IgG1 (Fc fusion)
chain: EVQLVESGGGEVQPGGSLRLSCTASGRAINMYAMGWFRQAPGKEREFVAAINWNGAYTQYAESVKGRFTISRDNAKNTLYLQMSSLRAEDTAVYYCSADADYNTYVSPNKRVSYWGQGTLVTVDKTHTCPPCPAPGGPSVFLFPPKPKDTLMISRTPEVTCVVVDVSHEDPEVKFNWYVDGVEVHNAKTKPREEQYNSTYRVVSVLTVLHQDWLNGKEYKCKVSNKALPAPIEKTISKAKGQPREPQVYTLPPSRDELTKNQVSLTCLVKGFYPSDIAVEWESNGQPENNYKTTPPVLDSDGSFFLYSKLTVDKSRWQQGNVFSCSVMHEALHNHYTQKSLSLSPGK
For the molecule B2, the Kd in assay [1] was found to be 0.92 nM. For the same molecule, the “EC50 (read off the curve)” value in assay [2] was roughly 1 nM.

B3: 4F2-IgG1 (Fc fusion)
chain: EVQLVQSGGGLVQAGGSLRLSCAASGRTVSNYPMAWFRQAPGKEREFVAHISWSGITSILNSVNDRFTISRDNAKNTIYLQMNSLKPEDTAVYYCAAAQRPTAGPKGPFGYWGQGTQVTVDKTHTCPPCPAPGGPSVFLFPPKPKDTLMISRTPEVTCVVVDVSHEDPEVKFNWYVDGVEVHNAKTKPREEQYNSTYRVVSVLTVLHQDWLNGKEYKCKVSNKALPAPIEKTISKAKGQPREPQVYTLPPSRDELTKNQVSLTCLVKGFYPSDIAVEWESNGQPENNYKTTPPVLDSDGSFFLYSKLTVDKSRWQQGNVFSCSVMHEALHNHYTQKSLSLSPGK
With B3, the Kd in assay [1] worked out at 1.37 nM. Further, the “EC50 (read off the curve)” value in assay [2] was 1 to 2 nM.

B4: 1F5-IgG1 (Fc fusion)
chain: QVQLVQSGGGLVQAGGSLTVSCTASGRAINMYAMGWFRQAPGKEREFVAAINWNGAYTQYADSVKGRFTISRDNAKNTMYLQMNSLKPEDTAQYYCSADADYNTYVSPNKRVSYWGQGTQVTVDKTHTCPPCPAPGGPSVFLFPPKPKDTLMISRTPEVTCVVVDVSHEDPEVKFNWYVDGVEVHNAKTKPREEQYNSTYRVVSVLTVLHQDWLNGKEYKCKVSNKALPAPIEKTISKAKGQPREPQVYTLPPSRDELTKNQVSLTCLVKGFYPSDIAVEWESNGQPENNYKTTPPVLDSDGSFFLYSKLTVDKSRWQQGNVFSCSVMHEALHNHYTQKSLSLSPGK
As for B4, the Kd in assay [1] worked out at 0.97 nM. For the same molecule, the 50% effective concentration (EC50 (read off the curve)) in assay [2] is roughly 0.9 nM.

B5: A5-IgG1 (Fc fusion)
chain: EVQLVQSGGGLVQAGGSLRLSCAVSGGTFSSYGMAWFRQPPGKEREWVASNSWIAGSTYYAGSVKGRFTISRDNAKNTVYLQMNSLKPEDTAVYYCAADLLATADDEYDYWGQGTQVTVDKTHTCPPCPAPGGPSVFLFPPKPKDTLMISRTPEVTCVVVDVSHEDPEVKFNWYVDGVEVHNAKTKPREEQYNSTYRVVSVLTVLHQDWLNGKEYKCKVSNKALPAPIEKTISKAKGQPREPQVYTLPPSRDELTKNQVSLTCLVKGFYPSDIAVEWESNGQPENNYKTTPPVLDSDGSFFLYSKLTVDKSRWQQGNVFSCSVMHEALHNHYTQKSLSLSPGK
notes: No linker between VHH and Fc is stated; also called sdAb A5
On to B5, for which the Kd in assay [1] was 0.12 nM. Also, in assay [3], the “IC50 (read off the curve)” value is 0.3 to 0.8 nM.

B6: hzA5v2-IgG1 (Fc fusion)
chain: EVQLVESGGGEVQPGGSLRLSCAASGGTFSSYGMAWFRQAPGKEREWVASNSWIAGSTYYAESVKGRFTISRDNAKNTVYLQMSSLRAEDTAVYYCAADLLATADDEYDYWGQGTLVTVDKTHTCPPCPAPGGPSVFLFPPKPKDTLMISRTPEVTCVVVDVSHEDPEVKFNWYVDGVEVHNAKTKPREEQYNSTYRVVSVLTVLHQDWLNGKEYKCKVSNKALPAPIEKTISKAKGQPREPQVYTLPPSRDELTKNQVSLTCLVKGFYPSDIAVEWESNGQPENNYKTTPPVLDSDGSFFLYSKLTVDKSRWQQGNVFSCSVMHEALHNHYTQKSLSLSPGK
notes: also called hzA5v2 sdAb
For the molecule B6, in the assay with CD123-his [4], the binding result was “binds”. For the same molecule, the Kd in assay [1] was found to be 0.11 nM.

B7: hz1B11v28-IgG1 (Fc fusion)
chain: EVQLVESGGGEVQPGGSLRLSCAASGRTQSAVAMGWFRQAPGKDRDFVAAIRWSGGNTYYAESVEGRFTISRDNAKNTVYLQMSSLRAEDTAVYSCAISLNHFGLYDYWGQGTLVTVDKTHTCPPCPAPGGPSVFLFPPKPKDTLMISRTPEVTCVVVDVSHEDPEVKFNWYVDGVEVHNAKTKPREEQYNSTYRVVSVLTVLHQDWLNGKEYKCKVSNKALPAPIEKTISKAKGQPREPQVYTLPPSRDELTKNQVSLTCLVKGFYPSDIAVEWESNGQPENNYKTTPPVLDSDGSFFLYSKLTVDKSRWQQGNVFSCSVMHEALHNHYTQKSLSLSPGK
notes: also called hz1B11v28 sdAb
Turning to B7, the binding result with CD123-his [4] is given as “binds”. The Kd in assay [1] was 0.96 nM. The 50% effective concentration (EC50 (read off the curve)) in assay [2] is roughly 0.9 nM.

B8: F3-IgG1 (Fc fusion)
chain: EVQLVQSGGGLVQAGGSLRLSCRASGRAINSYNMGWFRQAPGKEREFVSAINWNGARTYYQDALKGRFAISRDNARNTMYLQMNNLKPEDTAVYYCAAAGRWSAAVPSGEDQYNFWGQGTQVTVDKTHTCPPCPAPGGPSVFLFPPKPKDTLMISRTPEVTCVVVDVSHEDPEVKFNWYVDGVEVHNAKTKPREEQYNSTYRVVSVLTVLHQDWLNGKEYKCKVSNKALPAPIEKTISKAKGQPREPQVYTLPPSRDELTKNQVSLTCLVKGFYPSDIAVEWESNGQPENNYKTTPPVLDSDGSFFLYSKLTVDKSRWQQGNVFSCSVMHEALHNHYTQKSLSLSPGK
notes: also called sdAb F3
For B8, the Kd in assay [1] is 0.53 nM. For the same molecule, the concentration giving a half-maximal response (EC50 (read off the curve)) in assay [2] was roughly 0.6 nM. Besides, in assay [3], the “IC50 (read off the curve)” value is roughly 1 nM.

B9: hzF3v22-IgG1 (Fc fusion)
chain: EVQLVESGGGLVQPGGSLRLSCAASGRAINAYNMGWFRQAPGKGREFVSAINWNAARTYYAESVKGRFTISRDNAKNTLYLQMSSLRAEDTAVYYCAASGRWSAAVPSGEDQYNFWGQGTLVTVDKTHTCPPCPAPGGPSVFLFPPKPKDTLMISRTPEVTCVVVDVSHEDPEVKFNWYVDGVEVHNAKTKPREEQYNSTYRVVSVLTVLHQDWLNGKEYKCKVSNKALPAPIEKTISKAKGQPREPQVYTLPPSRDELTKNQVSLTCLVKGFYPSDIAVEWESNGQPENNYKTTPPVLDSDGSFFLYSKLTVDKSRWQQGNVFSCSVMHEALHNHYTQKSLSLSPGK
notes: also called hzF3v22 sdAb
With B9, the binding result with CD123-his [5] was “binds”. Also, the Kd in assay [1] is 0.59 nM. Besides, the “EC50 (read off the curve)” value in assay [2] is roughly 0.7 nM.

B10: hzF3v26-IgG1 (Fc fusion)
chain: EVQLVESGGGLVQPGGSLRLSCRASGRAINAYNMGWFRQAPGKGREFVSAINWNAARTYYAESVKGRFTISRDNAKNTLYLQMSSLRAEDTAVYYCAASGRWSAAVPSGEDQYNFWGQGTLVTVDKTHTCPPCPAPGGPSVFLFPPKPKDTLMISRTPEVTCVVVDVSHEDPEVKFNWYVDGVEVHNAKTKPREEQYNSTYRVVSVLTVLHQDWLNGKEYKCKVSNKALPAPIEKTISKAKGQPREPQVYTLPPSRDELTKNQVSLTCLVKGFYPSDIAVEWESNGQPENNYKTTPPVLDSDGSFFLYSKLTVDKSRWQQGNVFSCSVMHEALHNHYTQKSLSLSPGK
B10: the Kd in assay [1] is 0.93 nM. Also, in assay [2], the “EC50 (read off the curve)” value was roughly 1 nM.

As usually defined, the EC50 (read off the curve) is the concentration that produces a half-maximal response. Read a low EC50 (read off the curve) as higher potency in that assay.
